# Data: patent US20260151499A1, “ANTIBODY DERIVATIVE AND USE THEREOF” (TSINGHUA UNIVERSITY, priority 2023, published 2026)
# T1: CD73 (Homo sapiens, UniProt P21589)
# T1 construct: His (Chis) (C); made in house; host or cells: 293 cells
# T1 sequence (P21589 27-549 limits assumed): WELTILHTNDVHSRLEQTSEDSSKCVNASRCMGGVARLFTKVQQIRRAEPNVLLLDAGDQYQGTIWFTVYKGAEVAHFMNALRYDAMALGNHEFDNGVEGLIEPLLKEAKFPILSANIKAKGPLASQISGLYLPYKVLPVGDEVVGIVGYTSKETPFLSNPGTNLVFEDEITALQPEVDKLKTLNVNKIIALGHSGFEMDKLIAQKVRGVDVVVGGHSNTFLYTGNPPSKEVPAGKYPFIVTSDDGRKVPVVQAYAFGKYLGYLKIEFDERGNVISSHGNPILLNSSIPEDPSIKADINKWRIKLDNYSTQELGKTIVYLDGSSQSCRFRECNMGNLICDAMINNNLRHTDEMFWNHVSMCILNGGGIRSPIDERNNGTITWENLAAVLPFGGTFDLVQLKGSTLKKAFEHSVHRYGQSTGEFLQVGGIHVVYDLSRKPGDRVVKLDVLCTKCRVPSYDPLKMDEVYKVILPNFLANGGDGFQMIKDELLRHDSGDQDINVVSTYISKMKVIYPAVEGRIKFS
# B1: 10A7-BN3: IgG1 antibody 10A7 conjugated to BN3 (conjugate)
# VH: EVQLVESGGGLVQPGGSLRLSCAASGFAFSSYSMSWVRQAPGKGLEWIGSIYYSGSTYYNPSLKSRVTISADTSKNTAYLQMNSLRAEDTAVYYCARNSGFETLDYWGQGTLVTVSS
# VL: DIQMTQSPSSLSASVGDRVTITCRASQGISRWLAWYQQKPGKAPNLLIYGASTLQSGVPPRFSGSRSGTDFTLTISSLQPEDFATYYCQQXYTTPPTFGQGTKLEI
# modifications: non-natural residues
# B2: F3-PEG3-ASF: IgG1 Ab-UAA F3 conjugated with ASF-PEG3-DBCO (conjugate)
# VH: EVQLVESGGGLVQPGGSLRLSCAASGFTFSGHWMHWVRQAPGKGLEWVASISDSSSYIYYADSVRGRFTISRDNAKKTLYLQMNSLRAEDTAVYYCARDYEGATRAADYWGQGTLVTVSS
# VL: DIQMTQSPSSLSASVGDRVTITCRASQVIGNDLGWYQQKPGKAPKLLIYDVSNVQTGVPSRFSGSRSGTDFTLTISSLQPEDFATYYCQQXYTTPPTFGQGTKLEI
# modifications: non-natural residues
# notes: IgG1 Ab-UAA F3 conjugated with ASF-PEG3-DBCO
# B3: 14H4-PEG3-ASF: antibody 14H4 conjugated with ASF-PEG3-DBCO (conjugate)
# VH: EVQLVESGGGLVQPGGSLRLSCAASGFSFSKFWMHWVRQAPGKGLEWVAFMAHDESNKNYADSVKGRFTISADTSKNTAYLQMNSLRAEDTAVYYCARDKVCNTFDIWGQGTLVTVSS
# VL: DIQMTQSPSSLSASVGDRVTITCRASQSISSDLNWYQQKPGKAPKLLIYRATFLESGVPSRFSGSRSGTDFTLTISSLQPEDFATYYCQQXYTTPPTFGQGTKLEI
# modifications: not fully specified; non-natural residues
# notes: antibody 14H4 conjugated with ASF-PEG3-DBCO
# B4: 14E6-PEG3-ASF: antibody 14E6 conjugated with ASF-PEG3-DBCO (conjugate)
# VH: EVQLVESGGGLVQPGGSLRLSCAASGFTFSNFAMHWVRQAPGKGLEYVSAISGGNGGGTYYADSAKGRFTISADTSKNTAYLQMNSLRAEDTAVYYCAREGNYCLDYWGQGTLVTVSS
# VL: DIQMTQSPSSLSASVGDRVTITCRASQPISDWLAWYQQKPGKAPKSLIYDAYNLQSGVPPRFSGSRSGTDFTLTISSLQPEDFATYYCQQXYTTPPTFGQGTKLEI
# modifications: not fully specified; non-natural residues
# notes: antibody 14E6 conjugated with ASF-PEG3-DBCO
# B5: 5A5-PEG3-ASF: antibody 5A5 conjugated with ASF-PEG3-DBCO (conjugate)
# VH: EVQLVESGGGLVQPGGSLRLSCAASGFPFSGHWMHWVRQAPGKGLEWVSGISWNGGTTGYADSVKGRFTISRDNAKNSVYLQMNSLRAEDTAVYYCARDDYGGDSFDSWGQGTLVTVSS
# VL: DIQMTQSPSSLSASVGDRVTITCRASQSISDWLAWYQQKPGKAPKLLIYAASSLQSGVPSRFSGSRSGTDFTLTISSLQPEDFATYYCQQXYTTPPTFGQGTKLEI
# modifications: non-natural residues
# notes: antibody 5A5 conjugated with ASF-PEG3-DBCO
# B6: ABN3-2B-BN3: IgG1 antibody ABN3-2B conjugated to BN3 (conjugate)
# VH: EVQLVESGGGLVQPGGSLRLSCAASGFTFSSYWMHWVRQAPGKGLEWVSAVSGSGDSTYYADSVKGRFTISADTSKNTAYLQMNSLRAEDTAVYYCAREGDWGLDYWGQGTLVTVSS
# VL: DIQMTQSPSSLSASVGDRVTITCRASQGINNYLAWYQQKPGKAPKLLIYDASNLETGVPSRFSGSRSGTDFTLTISSLQPEDFATYYCQQXYTTPPTFGQGTKLEI
# modifications: not fully specified; non-natural residues
# B7: ABN3-2G-BN3: IgG1 antibody ABN3-2G conjugated to BN3 (conjugate)
# VH: EVQLVESGGGLVQPGGSLRLSCAASGITFGSYTMSWVRQAPGKGLEWIGTVHYTGKTFYSPSLKSRVTISADTSKNTAYLQMNSLRAEDTAVYYCARGRDFGEPPYVRAFDIWGQGTLVTVSS
# VL: DIQMTQSPSSLSASVGDRVTITCQASHDISKYLNWYQQKPGKAPKLLIYDASNLETGVPSRFSGSRSGTDFTLTISSLQPEDFATYYCQQXYTTPPTFGQGTKLEI
# modifications: not fully specified; non-natural residues
# Experiments:
# [1] = biological target: T1, CD73; test: Octet BLI affinity for CD73, Ab-BN3 on protein A sensors; assay type: binding
# [2] = biological target: T1, CD73; test: CD73 inhibition, AMP hydrolysis, malachite green phosphate assay; assay type: biochemical; conditions: calculated from the inhibition curves
# [3] = biological target: T2, NaV1.2 (Homo sapiens, UniProt Q99250); test: Whole-cell patch clamp, HEK293-NaV1.2 cells; assay type: cell-based; conditions: for inhibitory activity against NaV1.2 (in words): tested up to 500 nM; for inhibitory activity against NaV1.2 at 100 nM (in words): 100 nM Ab-ASF
# T2 construct: expressed in transfected cells; host or cells: HEK293
# [4] = biological target: T3, NaV1.7 (Homo sapiens, UniProt Q15858); test: Whole-cell patch clamp, HEK293-NaV1.7 cells; assay type: cell-based; conditions: for inhibitory activity against NaV1.7 (in words): tested up to 500 nM where selectivity
# T3 construct: expressed in transfected cells; host or cells: HEK293
# [5] = biological target: T4, NaV1.6 (Homo sapiens, UniProt Q9UQD0); test: Whole-cell patch clamp, HEK293-NaV1.6 cells; assay type: cell-based
# T4 construct: expressed in transfected cells; host or cells: HEK293
# T2 sequence (Q99250 whole entry): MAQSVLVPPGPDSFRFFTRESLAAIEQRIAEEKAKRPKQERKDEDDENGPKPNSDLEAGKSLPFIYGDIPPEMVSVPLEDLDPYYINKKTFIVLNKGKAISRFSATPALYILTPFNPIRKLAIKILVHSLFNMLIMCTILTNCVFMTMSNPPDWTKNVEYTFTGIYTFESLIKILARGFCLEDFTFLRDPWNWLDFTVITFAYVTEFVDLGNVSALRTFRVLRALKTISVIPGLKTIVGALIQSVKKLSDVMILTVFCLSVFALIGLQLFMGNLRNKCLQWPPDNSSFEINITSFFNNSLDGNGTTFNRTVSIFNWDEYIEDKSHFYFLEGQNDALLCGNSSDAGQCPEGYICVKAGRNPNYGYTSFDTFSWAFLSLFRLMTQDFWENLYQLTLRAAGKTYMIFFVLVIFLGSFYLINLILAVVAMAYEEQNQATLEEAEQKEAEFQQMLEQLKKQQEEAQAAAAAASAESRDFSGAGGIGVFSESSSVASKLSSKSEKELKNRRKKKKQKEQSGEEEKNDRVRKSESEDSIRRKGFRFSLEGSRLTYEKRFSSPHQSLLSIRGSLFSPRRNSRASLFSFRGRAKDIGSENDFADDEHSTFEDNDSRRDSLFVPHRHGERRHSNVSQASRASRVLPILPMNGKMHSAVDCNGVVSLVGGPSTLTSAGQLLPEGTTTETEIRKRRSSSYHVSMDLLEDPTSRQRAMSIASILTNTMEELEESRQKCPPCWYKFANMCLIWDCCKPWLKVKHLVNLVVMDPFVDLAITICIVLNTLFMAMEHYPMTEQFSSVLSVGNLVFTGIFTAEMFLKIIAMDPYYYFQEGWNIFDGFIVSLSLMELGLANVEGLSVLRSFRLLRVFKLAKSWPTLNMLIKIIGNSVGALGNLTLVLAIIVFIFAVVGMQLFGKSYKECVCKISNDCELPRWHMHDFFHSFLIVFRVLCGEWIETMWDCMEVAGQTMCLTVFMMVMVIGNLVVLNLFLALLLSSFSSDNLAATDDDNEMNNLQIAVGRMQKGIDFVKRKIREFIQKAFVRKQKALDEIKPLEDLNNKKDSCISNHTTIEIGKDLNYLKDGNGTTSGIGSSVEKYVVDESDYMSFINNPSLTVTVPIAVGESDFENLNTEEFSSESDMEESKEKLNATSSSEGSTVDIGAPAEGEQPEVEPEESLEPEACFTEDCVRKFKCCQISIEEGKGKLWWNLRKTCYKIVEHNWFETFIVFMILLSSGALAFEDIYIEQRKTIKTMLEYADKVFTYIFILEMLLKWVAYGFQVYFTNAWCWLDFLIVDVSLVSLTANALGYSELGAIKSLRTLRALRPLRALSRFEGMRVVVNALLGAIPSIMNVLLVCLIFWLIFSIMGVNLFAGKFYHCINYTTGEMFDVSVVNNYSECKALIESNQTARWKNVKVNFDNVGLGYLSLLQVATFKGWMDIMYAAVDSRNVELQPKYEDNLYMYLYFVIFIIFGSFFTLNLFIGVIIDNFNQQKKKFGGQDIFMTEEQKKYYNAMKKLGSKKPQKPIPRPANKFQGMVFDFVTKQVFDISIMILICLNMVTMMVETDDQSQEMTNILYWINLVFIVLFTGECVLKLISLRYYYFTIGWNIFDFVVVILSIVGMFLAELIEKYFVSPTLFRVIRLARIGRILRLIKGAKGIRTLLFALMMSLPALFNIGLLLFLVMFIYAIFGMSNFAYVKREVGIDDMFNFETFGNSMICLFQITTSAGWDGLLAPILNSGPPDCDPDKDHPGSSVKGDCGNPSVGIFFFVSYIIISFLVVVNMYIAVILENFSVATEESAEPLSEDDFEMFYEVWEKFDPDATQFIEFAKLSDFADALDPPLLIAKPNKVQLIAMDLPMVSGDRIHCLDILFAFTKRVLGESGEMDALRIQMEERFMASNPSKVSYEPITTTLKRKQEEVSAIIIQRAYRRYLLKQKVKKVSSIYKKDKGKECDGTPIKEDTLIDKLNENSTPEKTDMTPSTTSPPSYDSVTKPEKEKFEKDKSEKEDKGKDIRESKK
# T3 sequence (Q15858 whole entry): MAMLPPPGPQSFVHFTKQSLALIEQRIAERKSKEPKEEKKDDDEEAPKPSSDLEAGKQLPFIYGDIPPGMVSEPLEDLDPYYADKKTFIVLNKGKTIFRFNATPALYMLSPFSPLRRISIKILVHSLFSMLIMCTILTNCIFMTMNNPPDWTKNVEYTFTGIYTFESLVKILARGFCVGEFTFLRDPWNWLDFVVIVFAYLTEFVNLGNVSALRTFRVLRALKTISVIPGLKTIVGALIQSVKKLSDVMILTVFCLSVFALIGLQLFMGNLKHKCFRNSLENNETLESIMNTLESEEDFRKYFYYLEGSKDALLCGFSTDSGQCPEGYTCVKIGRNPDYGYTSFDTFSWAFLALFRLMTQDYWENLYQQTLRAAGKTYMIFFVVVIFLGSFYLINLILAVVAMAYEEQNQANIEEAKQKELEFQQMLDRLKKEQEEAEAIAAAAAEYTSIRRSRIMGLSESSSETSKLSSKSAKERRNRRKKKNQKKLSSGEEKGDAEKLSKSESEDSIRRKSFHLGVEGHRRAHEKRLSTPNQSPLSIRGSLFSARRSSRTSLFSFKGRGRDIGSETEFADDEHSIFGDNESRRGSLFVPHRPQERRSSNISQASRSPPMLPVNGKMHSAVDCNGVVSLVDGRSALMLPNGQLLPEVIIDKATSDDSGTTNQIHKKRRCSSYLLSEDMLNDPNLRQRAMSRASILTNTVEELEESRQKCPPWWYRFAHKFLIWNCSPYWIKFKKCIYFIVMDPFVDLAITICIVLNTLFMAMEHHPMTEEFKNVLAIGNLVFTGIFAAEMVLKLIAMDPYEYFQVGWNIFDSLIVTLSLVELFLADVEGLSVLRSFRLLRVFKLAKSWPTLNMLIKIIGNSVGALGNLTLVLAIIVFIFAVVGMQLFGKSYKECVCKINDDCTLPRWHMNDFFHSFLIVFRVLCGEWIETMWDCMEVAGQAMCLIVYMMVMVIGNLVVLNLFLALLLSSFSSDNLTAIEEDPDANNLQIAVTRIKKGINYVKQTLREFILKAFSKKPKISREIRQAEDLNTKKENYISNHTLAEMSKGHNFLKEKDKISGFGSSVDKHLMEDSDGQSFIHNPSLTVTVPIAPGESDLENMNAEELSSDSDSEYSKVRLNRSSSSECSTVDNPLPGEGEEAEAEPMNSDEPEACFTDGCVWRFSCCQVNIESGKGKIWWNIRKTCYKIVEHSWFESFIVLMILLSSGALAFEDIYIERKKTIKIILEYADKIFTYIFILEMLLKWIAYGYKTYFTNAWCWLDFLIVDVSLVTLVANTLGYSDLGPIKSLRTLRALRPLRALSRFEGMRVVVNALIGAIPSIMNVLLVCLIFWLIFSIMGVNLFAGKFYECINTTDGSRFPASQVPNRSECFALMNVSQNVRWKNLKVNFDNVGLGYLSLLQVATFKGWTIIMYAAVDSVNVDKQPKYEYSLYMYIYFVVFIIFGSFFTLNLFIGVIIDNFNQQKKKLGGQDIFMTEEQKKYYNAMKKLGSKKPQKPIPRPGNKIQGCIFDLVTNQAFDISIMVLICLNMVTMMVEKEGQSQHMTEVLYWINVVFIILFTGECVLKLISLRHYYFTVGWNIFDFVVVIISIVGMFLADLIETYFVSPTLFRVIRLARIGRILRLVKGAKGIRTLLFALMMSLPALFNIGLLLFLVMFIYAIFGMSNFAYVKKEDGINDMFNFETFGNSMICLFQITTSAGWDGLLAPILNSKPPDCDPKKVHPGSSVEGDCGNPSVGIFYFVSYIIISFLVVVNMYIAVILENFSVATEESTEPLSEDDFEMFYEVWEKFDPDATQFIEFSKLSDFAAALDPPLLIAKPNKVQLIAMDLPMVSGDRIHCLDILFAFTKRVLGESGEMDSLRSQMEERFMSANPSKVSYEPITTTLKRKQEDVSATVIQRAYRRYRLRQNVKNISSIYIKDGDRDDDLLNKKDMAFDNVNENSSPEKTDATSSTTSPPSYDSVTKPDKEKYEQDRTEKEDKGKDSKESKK
molecule,measurement,setting,value
B1,Kdis,[1],0.000191 s⁻¹
same,Kon,[1],2.15 × 10^5 1/ms
same,IC90,[2],2.9 nM
B2,inhibitory activity against NaV1.2 (in words),[3],no inhibitory activity
same,IC50,"[4]; non-competitive screening clones, 15 min incubation, read-out: IC50 ± SEM (nM) of Ab-PEG3-ASF in inhibiting NaV1.7",2.69 ± 0.687 nM
B3,inhibitory activity against NaV1.2 at 100 nM (in words),[3],near-complete inhibition
same,inhibition rate of NaV1.7 at 100 nM,[4]; 100 nM,about 30%
same,inhibition rate of NaV1.7 at 500 nM,[4]; 500 nM,about 40%
B4,inhibitory activity against NaV1.2 at 100 nM (in words),[3],near-complete inhibition
same,inhibitory activity against NaV1.7 (in words),[4],no inhibitory activity
B5,improvement of NaV1.6 inhibitory activity over ASF-PEG3-DBCO,[5],more than 20 fold
same,inhibitory activity against NaV1.2 (in words),[3],no inhibitory activity
same,inhibitory activity against NaV1.7 (in words),[4],no inhibitory activity
B6,Kdis,[1],0.000582 s⁻¹
same,Kon,[1],1.85 × 10^5 1/ms
B7,Kdis,[1],0.000271 s⁻¹
same,Kon,[1],3.05 × 10^5 1/ms
